Results published in patent publication US11819552B2, “Antibody-drug conjugates targeting uPARAP” (RIGSHOSPITALET, priority 2016, dated 2023).
“Also recorded” adds a separate entry of the source.

Tests used:
[1] = target: T1, soluble truncated uPARAP protein containing the first 3 N-terminal domains of human uPARAP (Homo sapiens, UniProt Q9UBG0); assay: ELISA analysis of uPARAP-binding of mAbs; details: after reduction step of conjugation, or in ADC form
T1 construct: a soluble truncated uPARAP protein containing the first 3 N-terminal domains of human uPARAP
T1 sequence (Q9UBG0 31-365): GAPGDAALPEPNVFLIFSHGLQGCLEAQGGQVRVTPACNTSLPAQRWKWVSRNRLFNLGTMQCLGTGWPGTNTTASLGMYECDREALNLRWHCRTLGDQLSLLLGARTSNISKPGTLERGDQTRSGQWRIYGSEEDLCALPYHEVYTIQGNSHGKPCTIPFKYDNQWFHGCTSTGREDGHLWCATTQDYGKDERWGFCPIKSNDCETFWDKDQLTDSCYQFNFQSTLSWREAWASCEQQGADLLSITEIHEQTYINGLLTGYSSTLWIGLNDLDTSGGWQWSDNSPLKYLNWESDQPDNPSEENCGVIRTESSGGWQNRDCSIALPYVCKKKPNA
Method: Untreated mAbs (2h9 or aTNP), same mAbs subjected to the reduction procedure of conjugation (see above), or ADCs 2h9-vc-MMAE or aTNP-vc-MMAE, were then employed as a primary antibody, followed by a HRP-conjugated rabbit anti-mouse Ig secondary antibody. Finally an o-phenylenediamine dihydrochloride-containing substrate solution was added, and the color reaction was stopped by adding 1M H2SO4. Plates were read at 492 nm using a plate reader.

[2] = target: T2, recombinant human (rh) Cathepsin B (Homo sapiens, UniProt P07858); assay: Cathepsin B linker cleavage assay (reducing SDS-PAGE); assay type: biochemical; details: incubation with activated rh cathepsin B, 37° C. overnight
T2 construct: purchased
Method: Reducing SDS-PAGE was performed by running a 4-12% NuPAGE Bis-Tris SDS-PAGE gel, loading 5 μg of total protein per lane, reduced by boiling for 3 minutes in sample buffer in the presence of 40 mM DTT. The gels were stained using a standard 0.1% coomassie blue stain. For cathepsin B linker cleavage assay, samples were treated with recombinant human (rh) Cathepsin B according to manufacturer's instructions, using 100 ng of activated rhCathepsin B to 20 μg ADC (mAb component), in a 25 mM MES, pH 5.0 buffer, and incubation at 37° C. overnight.

[3] = test system: CHO-K1 (receptor-negative cell line); assay: In vitro cytotoxicity of ADCs, cell viability assay (MTS); assay type: cell-based; details: 72 hours, 4-fold dilutions from 10 μg/mL ADC
Method: (§1) Cells tested were seeded at low density (20-25% confluence, generally 5-10×10^3 cells per well) in a 96 well plate in 90 μL of medium, and incubated overnight. […] Cells were incubated for 72 hours, before 20 μL of CellTiter 96 AQueous One Solution Cell Proliferation Assay (MTS, Promega) was added, and incubated for an appropriate time for formation of color (usually 1 hour). The plates were then read at 490 nm, with background subtraction at 630 nm, using a plate reader.

[4] = test system: HT1080 cells; assay: as above; assay type: cell-based; details: 72 hours, 4-fold dilutions from 10 μg/mL ADC, vs aTNP-vc-MMAE
Method: as §1

[5] = test system: KNS42 cells; assay: as above; assay type: cell-based; details: 72 hours, 4-fold dilutions from 10 μg/mL ADC, vs aTNP-vc-MMAE
Method: as §1

[6] = test system: THP-1 cells; assay: as above; assay type: cell-based; details: 72 hours, 4-fold dilutions from 10 μg/mL ADC, vs aTNP-vc-MMAE
Method: as §1

[7] = test system: U937 cells; assay: as above; assay type: cell-based; details: 72 hours, 4-fold dilutions from 10 μg/mL ADC (mAb component), vs aTNP-vc-MMAE
Method: as §1

[8] = test system: HT1080 cells; assay: Cell cycle distribution analysis; assay type: cell-based; details: 3-day incubation, 1 μg/mL ADC
Method: (§2) Cell cycle analysis was performed using a Nucleocounter NC-3000 system (ChemoMetec Denmark), using the manufacturers standard protocol for analyzing the cell cycle distribution of a population of cells, based on the DNA content of each cell. The percentage of cells in Sub-G1, G1, S, or G2/M-phases of the cell cycle was established from histogram analysis using the NucleoView NC-3000 software.

[9] = test system: KNS42 cells; assay: Cell cycle distribution analysis; assay type: cell-based; details: 3-day incubation, 1 μg/mL ADC
Method: as §2

[10] = test system: THP-1 cells; assay: Cell cycle distribution analysis; assay type: cell-based; details: 3-day incubation, 1 μg/mL ADC
Method: as §2

[11] = test system: U937 cells; assay: Cell cycle distribution analysis; assay type: cell-based; details: 3-day incubation, 1 μg/mL ADC
Method: as §2

[12] = test system: U937 xenograft tumour; assay: Subcutaneous uPARAP-positive U937 xenograft tumour model, treatment by s.c. injection; assay type: in vivo, CB17 SCID mice
Method: (§3) All animal experiments were performed under legal approval from The Danish Veterinary and Food Administration. All reagents and cell lines used for animal experiments were tested negative for the presence of murine viruses, bacteria, mycoplasma and fungi. Animals received standard of care, and were sacrificed upon any of the following signs: loss of more than 10% of body weight, visible distress or illness, compromised food—or water intake or defecation, signs of severe inflammation in the vicinity of tumours, or tumour growth which exceeded a volume of 1000 mm^3 or compromised the free movement of the animals. Tumour growth was measured using electronic calipers, and tumour volumes were calculated using the formula Volume=(LxW^2)/2, with L being the longest dimension of the tumour, and W being the width in the perpendicular dimension.
For tumour establishment, mice were shaved at the flank, and received a subcutaneous injection of 1×10^6 U937 cells, and then closely monitored in order to observe the development of solid tumours. […] All treatments were given as a total of 4 subcutaneous doses of 3 mg/kg mAb component in the tumour area, at 4 days intervals. Injections were performed under brief isoflurane anesthesia to avoid risks for the animal handler. During treatment, the tumours were evaluated every two days, until reaching a point of sacrifice. Mice which fully lost any tumour burden were checked two times a week for a period of 3 months after ending treatment.

[13] = test system: U937 xenograft tumour; assay: Subcutaneous uPARAP-positive U937 xenograft tumour model, treatment by intravenous injection; assay type: in vivo, CB17 SCID mice
Method: as §3
For tumour establishment, mice were shaved at the flank, and received a subcutaneous injection of 1×10^6 U937 cells, and then closely monitored in order to observe the development of solid tumours. […] All treatments were given as a total of 3 intravenous doses of 5 mg/kg mAb component in the tail veins of the mice, at 4 days intervals. During treatment, the tumours were evaluated every two days, until reaching a point of sacrifice. Mice which fully lost any tumour burden were checked two times a week for a period of 3 months after ending treatment.

[14] = test system: human glioblastoma explant cells; assay: In vitro cell viability assay on glioblastoma explant cells; details: as FIG. 5 assay; vs aTNP-based control ADCs
Method: as §1
The ADCs 2h9-vc-MMAE and 2h9-vc-MMAF were tested by in vitro cell viability assays, performed as described in Example 1, for their capacity to specifically kill human glioblastoma explant cells. Glioblastoma explant cells are e.g. described in Staberg et al., 2017, Cell Oncol. 40: 21-32.

[15] = s.c., 3 mg/kg, 4 doses, of the 10 mice treated

B1: 2h9-vc-MMAE: uPARAP-directed ADC: mAb 2h9 conjugated to MC-VC-PAB-MMAE (Vedotin) linker-toxin (conjugate)
light: DIQMTQSPASQSASLGESVTITCLASQTIGTWLAWYQQKPGKSPQLLIYAATTLTDGVPSRFSGAGSGTKFSLKISSLQAEDFASYFCQEFFSTPFTFGSGTKLELKRADAAPTVSIFPPSSEQLTSGGASVVCFLNNFYPKDINVKWKIDGGERQNGVLNSWTDQDSKDSTYSMSSTLTLTKDEYERHNSYTCEATHKTSTSPIVKSFNRNEC
heavy: QVQLQQPGTELVRPGLSVKLSCKASGYTFTSYWMNWVKQRPGQGLEWIGMIHPSNDEKRINQKFKDKATLTVDKFSSTVYMQVSSPTSEDSAVYYCARGGGDYVGDYALDFWGQGTSVTVSSAKTTPPSVYPLAPGSAAQTNSMVTLGCLVKGYFPEPVTVTWNSGSLSSGVHTFPAVLQSDLYTLSSSVTVPSSTWPSETVTCNVAHPASSTKVDKKIVPRDCGCKPCICTVPEVSSVFIFPPKPKDVLTITLTPKVTCVVVDISKDDPEVQFSWFVDDVEVHTAQTQPREEQFNSTFRSVSELPIMHQDWLNGKEFKCRVNSAAFPAPIEKTISKTKGRPKAPQVYTIPPPKEQMAKDKVSLTCMITDFFPEDITVEWQWNGQPAENYKNTQPIMDTDGSYFIYSKLNVQKSNWEAGNTFTCSVLHEGLHNHHTEKSLSHSPGK
- Affinity towards uPARAP following conjugation procedure [1]: retained affinity
- Linker cleavage by cathepsin B (gel mobility) [2]: reverts ADC gel mobility back to that of unmodified targeting antibody
- Overall cell viability [3]: remains unaffected
- Overall cell viability [4]: specific reduction in overall viability
- Overall cell viability [5]: specific reduction in overall viability
- Overall cell viability [6]: specific reduction in overall viability
- Overall cell viability [7]: most sensitive cell line tested; also recorded: specific reduction in overall cell viability
- Cell cycle distribution [8]: shift in cell cycle distribution towards the Sub-G1 and G2/M phases
- Cell cycle distribution [9]: shift in cell cycle distribution towards the Sub-G1 and G2/M phases
- Cell cycle distribution [10]: shift in cell cycle distribution towards the Sub-G1 and G2/M phases
- Cell cycle distribution [11]: shift in cell cycle distribution towards the Sub-G1 and G2/M phases
- Tumour growth ([12]; s.c. near the tumour, 3 mg/kg mAb component, 4 doses every 4 days): drastic decrease in tumour growth
- Permanent cure rate ([12]; s.c., 3 mg/kg mAb component, 4 doses every 4 days, N=10): 50%
- Mice free from tumour growth for a period of 90 days [12, 15]: 5 mice
- Mice with almost immediate relapse of tumour growth following treatment [12, 15]: 5 mice
- Tumour burden ([13]; i.v. tail vein, 5 mg/kg mAb component, 3 doses every 4 days, all 10 mice): complete abrogation of the tumour burden
- Permanent cure rate ([13]; i.v., 5 mg/kg mAb component, 3 doses every 4 days, N=10): 100%
- Adverse / detrimental effects on treated mice ([13]; regular inspection of the treated mice, antibody cross-reactive with murine uPARAP): without any evident adverse effects; also recorded: no signs of detrimental effects were seen
- Cell viability / sensitivity of glioblastoma explant cells [14]: very strong and specific sensitivity; also recorded: high degree of specific sensitivity
